Assay results reported in US20060083715A1 (published 2006).

Molecular target: T1, Interferon type I receptors on HeLa cells (UniProt P17181 28-557; P48551 27-515, limits assumed)
T1 sequence (looked up) 1: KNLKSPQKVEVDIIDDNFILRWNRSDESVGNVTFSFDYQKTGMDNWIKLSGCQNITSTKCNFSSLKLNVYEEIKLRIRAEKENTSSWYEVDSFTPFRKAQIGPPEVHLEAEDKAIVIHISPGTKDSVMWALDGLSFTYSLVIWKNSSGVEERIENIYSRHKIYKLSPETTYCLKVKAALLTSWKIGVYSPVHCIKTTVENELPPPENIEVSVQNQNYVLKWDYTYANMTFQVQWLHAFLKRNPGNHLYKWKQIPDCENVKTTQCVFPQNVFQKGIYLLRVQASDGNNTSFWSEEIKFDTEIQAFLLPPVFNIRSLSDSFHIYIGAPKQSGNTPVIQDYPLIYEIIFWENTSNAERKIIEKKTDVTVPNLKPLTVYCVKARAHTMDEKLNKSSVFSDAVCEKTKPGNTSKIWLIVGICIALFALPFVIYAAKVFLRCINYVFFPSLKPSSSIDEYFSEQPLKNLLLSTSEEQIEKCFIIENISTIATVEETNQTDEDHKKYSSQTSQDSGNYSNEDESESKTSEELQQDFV
T1 sequence (looked up) 2: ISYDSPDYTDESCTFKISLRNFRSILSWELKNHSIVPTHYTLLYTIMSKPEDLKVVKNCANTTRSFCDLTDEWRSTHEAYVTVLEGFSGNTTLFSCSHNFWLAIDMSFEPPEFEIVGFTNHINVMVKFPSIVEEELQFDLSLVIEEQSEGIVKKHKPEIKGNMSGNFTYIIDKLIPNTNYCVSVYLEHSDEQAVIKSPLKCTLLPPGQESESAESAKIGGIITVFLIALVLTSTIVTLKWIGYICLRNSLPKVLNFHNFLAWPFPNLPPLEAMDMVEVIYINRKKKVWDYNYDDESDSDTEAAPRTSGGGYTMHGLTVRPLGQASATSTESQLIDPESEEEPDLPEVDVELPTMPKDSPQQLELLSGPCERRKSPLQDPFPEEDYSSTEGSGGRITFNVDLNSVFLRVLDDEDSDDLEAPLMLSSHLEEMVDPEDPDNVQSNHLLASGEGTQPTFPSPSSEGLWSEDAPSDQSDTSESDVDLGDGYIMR
Assay: cell-based or functional assay

- specific activity relative to wild-type human IFNB (primary assay): ~2 fold of wild-type human IFNB
B1: [F111N+R113T] human IFNB variant (ligand)
chain: MSYNLLGFLQRSSNFQCQKLLWQLNGRLEYCLKDRMNFDIPEEIKQLQQFQKEDAALTIYEMLQNIFAIFRQDSSSTGWNETIVENLLANVYHQINHLKTVLEEKLEKEDNTTGKLMSSLHLKRYYGRILHYLKAKEYSHCAWTIVRVEILRNFYFINRLTGYLRN
modifications: introduced in vivo N-glycosylation site at position 111
